PMC6050537, “Inhibition of low-density lipoprotein receptor degradation with a cyclic peptide that disrupts the homodimerization of IDOL E3 ubiquitin ligase” (Chemical Science, 2018)

Tests used:
[1] = molecular target: Full length IDOL (1–445) (UniProt Q8WY64); experiment: MST; as a6 but in the presence of RINGpep2 (100 μM); apparent; homodimer to monomers
[2] = molecular target: Full length IDOL (1–445) (UniProt Q8WY64); experiment: MST; increasing concentrations of unlabelled IDOL titrated into a 45 nM solution of dye-labelled IDOL; homodimer to monomers

apparent KD in the presence of RINGPep2 (100 μM) [1]: 11.1 µM
Kd [2]: 2.9 µM
Substance: Full length IDOL (1–445) (from UniProt Q8WY64 1-445) (enzyme)
